Experimental data as given in paper PMC7343240.

Experiments:
[1] = biological target: IGF-1Rzip (leucine-zipper-stabilized human IGF-1R ectodomain) (human | Saccharomyces cerevisiae); test: cryo-EM structure; IGF-1Rzip mixed with IGF-II at a molar ratio of 1 to 1.5 (receptor homodimer to ligand) in TBSA (24.8 mM Tris-HCl pH 8.0, 137 mM NaCl, 2.7 mM KCl, 0.02% azide); single-particle reconstruction; open-leg and closed-leg 3D classes
[2] = biological target: IGF-1Rzip (leucine-zipper-stabilized human IGF-1R ectodomain) (human | Saccharomyces cerevisiae); test: europium time-resolved fluorescence competition binding assay (immunocapture); IGF-1Rzip (0.5 μg per well) captured on a plate coated with 24-31 anti-human IGF-1R antibody; Eu-IGF-I or Eu-IGF-II (~100,000 counts) with increasing concentrations of unlabelled IGF-I or IGF-II; 16 h at 4°C; one-site fit
[3] = biological target: holoIGF-1R (IGF-1R holoreceptor solubilized from P6 cells) (human) (UniProt P08069); test: europium time-resolved fluorescence competition binding assay (immunocapture); IGF-1R solubilized from P6 cells (100 μl lysate per well) captured on a plate coated with 24-31 anti-human IGF-1R antibody; Eu-IGF-I or Eu-IGF-II (~100,000 counts) with increasing concentrations of unlabelled IGF-I or IGF-II; 16 h at 4°C; one-site fit

Substance	stoichiometry N (IGF-II per receptor homodimer) [1]	IC50 [2]	IC50 [3]
"Receptor grade" IGF-II (GroPep) (ligand)	1		
human insulin-like growth factor I (IGF-I) (from UniProt P05019 49-118) (ligand)		0.39 nM	
human insulin-like growth factor II (IGF-II), of Francis et al., 1993 (ligand)		1.24 nM	0.85 nM
